Publication PMC4011751, “Recombinant Expression and Characterization of the Cytoplasmic Rice β-Glucosidase Os1BGlu4” (PLoS ONE, 2014)

Columns and labels:
rOs1BGlu4 = molecular target: T1, rOs1BGlu4 (Oryza sativa, UniProt Q5N863); test: inhibition of pNPGlc hydrolysis, […] nm; assay type: biochemical; conditions: read-out: Relative activity remaining (%)
T1 construct: gene BGLU4; full-length ORF (483 aa, no signal peptide, about 55 kDa) in pET32a(+), E. coli Origami B(DE3); Trx-His6 tag removed with enterokinase
T1 sequence (Q5N863 1-483): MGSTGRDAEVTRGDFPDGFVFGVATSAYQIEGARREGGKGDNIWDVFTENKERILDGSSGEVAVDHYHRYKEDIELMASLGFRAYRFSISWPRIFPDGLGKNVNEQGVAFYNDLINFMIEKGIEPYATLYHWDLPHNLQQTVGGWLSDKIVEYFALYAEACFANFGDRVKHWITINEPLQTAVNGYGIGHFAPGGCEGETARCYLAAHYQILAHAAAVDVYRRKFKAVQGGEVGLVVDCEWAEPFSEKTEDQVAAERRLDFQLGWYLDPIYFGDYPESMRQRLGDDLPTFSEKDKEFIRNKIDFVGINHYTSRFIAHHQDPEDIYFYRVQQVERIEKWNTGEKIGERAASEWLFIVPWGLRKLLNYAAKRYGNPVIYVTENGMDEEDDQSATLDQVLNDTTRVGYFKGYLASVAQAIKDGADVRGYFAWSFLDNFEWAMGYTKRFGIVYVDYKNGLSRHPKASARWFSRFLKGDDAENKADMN

purified protein [1] = substrate: O=[N+]([O-])c1ccc(O[C@@H]2OC[C@H](O)[C@H](O)[C@H]2O)cc1; test: purified protein; assay type: biochemical, Oryza sativa; conditions: 50 mM sodium phosphate pH 6.5, 30°C (standard assay)
purified protein [2] = substrate: C[C@H]1O[C@@H](Oc2ccc([N+](=O)[O-])cc2)[C@H](O)[C@@H](O)[C@H]1O; test: purified protein; assay type: biochemical, Oryza sativa; conditions: 50 mM sodium phosphate pH 6.5, 30°C (standard assay)
[3] = substrate: O=[N+]([O-])c1ccc(O[C@@H]2O[C@H](CO)[C@@H](O[C@@H]3O[C@H](CO)[C@@H](O)[C@H](O)[C@H]3O)[C@H](O)[C@H]2O)cc1; test: initial-rate hydrolysis, glucose release by peroxidase/glucose oxidase assay, nonlinear Michaelis-Menten fit; assay type: biochemical, Oryza sativa; conditions: 50 mM sodium phosphate pH 6.5, 30°C (standard assay)
purified protein [4] = substrate: O=[N+]([O-])c1ccc(O[C@@H]2O[C@H](CO)[C@@H](O)[C@H](O)[C@H]2O)cc1; test: purified protein; conditions: 50 mM sodium phosphate pH 6.5, 30°C (standard assay)
purified protein [5] = substrate: O=[N+]([O-])c1ccc(O[C@@H]2O[C@H](CO)[C@@H](O)[C@H](O)[C@@H]2O)cc1; test: purified protein; conditions: 50 mM sodium phosphate pH 6.5, 30°C (standard assay)
purified protein [6] = substrate: O=[N+]([O-])c1ccc(O[C@@H]2O[C@H](CO)[C@H](O)[C@H](O)[C@H]2O)cc1; test: purified protein; conditions: 50 mM sodium phosphate pH 6.5, 30°C (standard assay)

Q: With `OC1OC[C@H](O)[C@H](O)[C@H]1O` (stereo partly drawn) [L-Arabinose] as the molecule, how does the remaining activity at 10000 µM (rOs1BGlu4) read?
A: The remaining activity at 10000 µM was 61%.

Q: How did the remaining activity at 10000 µM (rOs1BGlu4) turn out when `OC[C@H]1OC(O)[C@H](O)[C@@H](O)[C@H]1O` (stereo partly drawn) [D-Galactose] was run?
A: The remaining activity at 10000 µM was 93%.

Q: For `OC1OC[C@@H](O)[C@H](O)[C@H]1O` (stereo partly drawn) [D-Xylose], which remaining activity at 10000 µM (rOs1BGlu4) is on record?
A: The remaining activity at 10000 µM was 85%.

Q: For `OC[C@H]1OC(O)[C@H](O)[C@@H](O)[C@@H]1O` (stereo partly drawn) [D-Glucose], which remaining activity at 10000 µM (rOs1BGlu4) is on record?
A: Its remaining activity at 10000 µM is 90%.

Q: Which remaining activity at 10000 µM (rOs1BGlu4) does the source give for `N[C@H]1C(O)O[C@H](CO)[C@@H](O)[C@@H]1O` (stereo partly drawn) [D-Glucosamine] here?
A: Its remaining activity at 10000 µM is 84%.

Q: Which remaining activity at 10000 µM (rOs1BGlu4) does the source give for `OC[C@H]1OC(O)[C@@H](O)[C@@H](O)[C@@H]1O` (stereo partly drawn) [D-Mannose] here?
A: Its remaining activity at 10000 µM is 73%.

Q: For `O=C1O[C@H](CO)[C@@H](O)[C@H](O)[C@H]1O` [δ-glucono-lactone], which remaining activity at 1000 µM (rOs1BGlu4) is on record?
A: Its remaining activity at 1000 µM is 14%.

B1: rOs1BGlu4 (Oryza sativa Japonica Group) (protein)
chain: MGSTGRDAEVTRGDFPDGFVFGVATSAYQIEGARREGGKGDNIWDVFTENKERILDGSSGEVAVDHYHRYKEDIELMASLGFRAYRFSISWPRIFPDGLGKNVNEQGVAFYNDLINFMIEKGIEPYATLYHWDLPHNLQQTVGGWLSDKIVEYFALYAEACFANFGDRVKHWITINEPLQTAVNGYGIGHFAPGGCEGETARCYLAAHYQILAHAAAVDVYRRKFKAVQGGEVGLVVDCEWAEPFSEKTEDQVAAERRLDFQLGWYLDPIYFGDYPESMRQRLGDDLPTFSEKDKEFIRNKIDFVGINHYTSRFIAHHQDPEDIYFYRVQQVERIEKWNTGEKIGERAASEWLFIVPWGLRKLLNYAAKRYGNPVIYVTENGMDEEDDQSATLDQVLNDTTRVGYFKGYLASVAQAIKDGADVRGYFAWSFLDNFEWAMGYTKRFGIVYVDYKNGLSRHPKASARWFSRFLKGDDAENKADMN
notes: full-length ORF (483 aa, no signal peptide, about 55 kDa) in pET32a(+), E. coli Origami B(DE3); Trx-His6 tag removed with enterokinase
Q: How did the Km (purified protein [1]) turn out when B1 was run?
A: Its Km is 380 ± 20 µM.

Q: And the kcat (purified protein [1])?
A: Its kcat is 0.52 s⁻¹.

Q: And the kcat/Km (purified protein [1])?
A: Its kcat/Km is 1370 M⁻¹ s⁻¹.

Q: And the Km (purified protein [2])?
A: The Km was 710 ± 20 µM.

Q: What about the kcat (purified protein [2]) of the same molecule?
A: Its kcat is 6.61 ± 0.08 s⁻¹.

Q: And the kcat/Km (purified protein [2])?
A: The kcat/Km was 9340 M⁻¹ s⁻¹.

Q: What about the Km [3] of the same molecule?
A: The Km was 140 ± 10 µM.

Q: What about the kcat [3] of the same molecule?
A: The kcat was 3.44 ± 0.18 s⁻¹.

Q: And the kcat/Km [3]?
A: Its kcat/Km is 24400 M⁻¹ s⁻¹.

Q: And the Km (purified protein [4])?
A: The Km was 710 ± 20 µM.

Q: What about the kcat (purified protein [4]) of the same molecule?
A: The kcat was 12.8 s⁻¹.

Q: What about the kcat/Km (purified protein [4]) of the same molecule?
A: The kcat/Km was 17900 M⁻¹ s⁻¹.

Q: What about the Km (purified protein [5]) of the same molecule?
A: Its Km is 2240 ± 30 µM.

Q: What about the kcat (purified protein [5]) of the same molecule?
A: The kcat was 1.25 s⁻¹.

Q: And the kcat/Km (purified protein [5])?
A: The kcat/Km was 560 M⁻¹ s⁻¹.

Q: What about the Km (purified protein [6]) of the same molecule?
A: The Km was 7330 ± 320 µM.

Q: And the kcat (purified protein [6])?
A: The kcat was 3.16 s⁻¹.

Q: What about the kcat/Km (purified protein [6]) of the same molecule?
A: Its kcat/Km is 430 M⁻¹ s⁻¹.
